Experimental findings from ChEMBL document CHEMBL2074010, “Transport function and hepatocellular localization of mrp6 in rat liver” (Mol Pharmacol, 2000) are described below.

Substrate in series [1]: CC(C)C[C@@H]1NC(=O)[C@@H](C(C)C)NC(=O)[C@@H]2CCCN2C(=O)[C@@H](CC(=O)O)NC(=O)[C@@H](Cc2c[nH]c3ccccc23)NC1=O
As to the kind of experiment: TP_TRANSPORTER: uptake in membrane vesicles from Mrp2-expressing Sf9 cells. Format: functional, cell membranes, Membrane vesicle.

Substrate in series [2]: CC(C)C[C@@H]1NC(=O)[C@@H](C(C)C)NC(=O)[C@@H]2CCCN2C(=O)[C@@H](CC(=O)O)NC(=O)[C@@H](Cc2c[nH]c3ccccc23)NC1=O
The series can be described thus: TP_TRANSPORTER: uptake in membrane vesicle from Mrp6-expressing Sf9 cells. It is filed as functional, cell membranes.

B1: ATP-binding cassette sub-family C member 2 (Rattus norvegicus) (protein)
chain: MDKFCNSTFWDLSLLESPEADLPLCFEQTVLVWIPLGFLWLLAPWQLYSVYRSRTKRSSITKFYLAKQVFVVFLLILAAIDLSLALTEDTGQATVPPVRYTNPILYLCTWLLVLAVQHSRQWCVRKNSWFLSLFWILSVLCGVFQFQTLIRALLKDSKSNMAYSYLFFVSYGFQIVLLILTAFSGPSDSTQTPSVTASFLSSITFSWYDRTVLKGYKHPLTLEDVWDIDEGFKTRSVTSKFEAAMTKDLQKARQAFQRRLQKSQRKPEATLHGLNKKQSQSQDVLVLEEAKKKSEKTTKDYPKSWLIKSLFKTFHVVILKSFILKLIHDLLVFLNPQLLKLLIGFVKSSNSYVWFGYICAILMFAVTLIQSFCLQSYFQHCFVLGMCVRTTVMSSIYKKALTLSNLARKQYTIGETVNLMSVDSQKLMDATNYMQLVWSSVIQITLSIFFLWRELGPSILAGVGVMVLLIPVNGVLATKIRNIQVQNMKNKDKRLKIMNEILSGIKILKYFAWEPSFQEQVQGIRKKELKNLLRFGQLQSLLIFILQITPILVSVVTFSVYVLVDSANVLNAEKAFTSITLFNILRFPLSMLPMVTSSILQASVSVDRLERYLGGDDLDTSAIRRVSNFDKAVKFSEASFTWDPDLEATIQDVNLDIKPGQLVAVVGTVGSGKSSLVSAMLGEMENVHGHITIQGSTAYVPQQSWIQNGTIKDNILFGSEYNEKKYQQVLKACALLPDLEILPGGDMAEIGEKGINLSGGQKQRVSLARAAYQDADIYILDDPLSAVDAHVGKHIFNKVVGPNGLLAGKTRIFVTHGIHFLPQVDEIVVLGKGTILEKGSYRDLLDKKGVFARNWKTFMKHSGPEGEATVNNDSEAEDDDDGLIPTMEEIPEDAASLAMRRENSLRRTLSRSSRSSSRRGKSLKNSLKIKNVNVLKEKEKEVEGQKLIKKEFVETGKVKFSIYLKYLQAVGWWSILFIILFYGLNNVAFIGSNLWLSAWTSDSDNLNGTNNSSSHRDMRIGVFGALGLAQGICLLISTLWSIYACRNASKALHGQLLTNILRAPMRFFDTTPTGRIVNRFSGDISTVDDLLPQTLRSWMMCFFGIAGTLVMICMATPVFAIIIIPLSILYISVQVFYVATSRQLRRLDSVTKSPIYSHFSETVTGLPIIRAFEHQQRFLAWNEKQIDINQKCVFSWITSNRWLAIRLELVGNLVVFCSALLLVIYRKTLTGDVVGFVLSNALNITQTLNWLVRMTSEAETNIVAVERISEYINVENEAPWVTDKRPPADWPRHGEIQFNNYQVRYRPELDLVLKGITCNIKSGEKVGVVGRTGAGKSSLTNCLFRILESAGGQIIIDGIDVASIGLHDLRERLTIIPQDPILFSGSLRMNLDPFNKYSDEEVWRALELAHLRSFVSGLQLGLLSEVTEGGDNLSIGQRQLLCLGRAVLRKSKILVLDEATAAVDLETDSLIQTTIRKEFSQCTVITIAHRLHTIMDSDKIMVLDNGKIVEYGSPEELLSNRGSFYLMAKEAGIENVNHTEL
Broadly, the Km is the concentration of substrate that gives half-maximal velocity. As to B1, in series [1], the Km was 124 µM.

B2: ATP-binding cassette sub-family C member 6 (Rattus norvegicus) (protein)
chain: MNGEHSMATPGESCAGLRVWNQTEQEPVAYHLLNLCFLRAAGSWVPPMYLWVLGPIYLLYIHRHGCCYLRMSRLFKIKMVLGFALILLYTFNAAVPLWRIHRGMPQAPELLIHPTVWLTTMSFATFLIHMERKKGVRASGLLFGYWLLCCLVPAIDTVQQASAGSFRQEPLHHLATYLCLSLVVAELVLSCLVDQPPFFSEDSKPLNPCPEAEASFPSKAMFWWASGLLWKGYRKLLGPKDLWSLERENSSEELVSQLEREWRRNFSELPGHKGHSGMGTPETEAFLQPERSQRGPLLRAIWRVFRSTFLLGTLSLVISDAFRFAVPKLLSLFLEFMGDLESSAWTGWLLAVLMFLSACLQTLFEQQYMYRVKVLQMRLRTAITGLVYRKVLVLSSGSRKSSAAGDVVNLVSVDVQRLVESILHLNGLWLLFLWIIVCFVYLWQLLGPSALTAVAVFLSLLPLNFFITKKRSFHQEEQMRQKASRARLTSSMLRTVRTIKSHGWECAFLERLLHIRGQELGALKTSAFLFSVSLVSFQVSTFLVALVVFAVHTLVAEDNAMDAEKAFVTLTVLSILNKAQAFLPFSVHCLVQARVSFDRLAAFLCLEEVDPNGMVLSPSRCSSKDRISIHNGTFAWSQESPPCLHGINLTVPQGCLLAVVGPVGAGKSSLLSALLGELLKVEGSVSIEGSVAYVPQEAWVQNTSVVENVCFRQELDLPWLQEVLEACALGSDVASFPAGVHTPVGEQGMNLSGGQKQRLSLARAVYRRAAVYLMDDPLAALDAHVSQEVFKQVIGPSGLLQGTTRILVTHTLHVLPQADQILVLANGTIAEMGSYQDLLHRNGALVGLLDGARQPAGEGEGEAHAAATSDDLGGFSGGGTPTRRPERPRPSDAAPVKGSTSEAQMEPSLDDVEVTGLTAGEDSVQYGRVKSATYLSYLRAVGTPLCTYTLFLFLCQQVASFCQGYWLSLWADDPVVDGKQMHSALRGSIFGLLGCLQAIGLFASMAAVFLGGARASCLLFRSLLWDVARSPIGFFERTPVGNLLNRFSKETDIVDVDIPDKMRTLLTYAFGLLEVGLAVSMATPLAIVAILPLMLLYAGFQSLYVATCCQLRRLESASYSSVCSHLAETFQGSQVVRAFQAQGPFTAQHDALMDENQRISFPRLVADRWLAANLELLGNGLVFVAATCAVLSKAHLSAGLAGFSVSAALQVTQTLQWVVRSWTDLENSMVAVERVQDYVHTPKEAPWRLPSSAAQPLWPCGGQIEFRDFGLRHRPELPMAVQGVSLKIHAGEKVGIVGRTGAGKSSLTWGLLRLQEATEGGIWIDGVPITDMGLHTLRSRITIIPQDPVLFPGSLRMNLDLLQENTDEGIWAALETVQLKAFVTSLPGQLQYECSGQGDDLSVGQKQLLCLARALLRKTQILILDEATASVDPGTEIQMQAALERWFAQCTVLLIAHRLRSVMNCARVLVMDEGQVAESGSPAQLLAQKGLFYRLAQESGLA
For the protein B2, in series [2], the Michaelis-Menten constant (Km) worked out at 17 µM.
